# Legend:
# [1] = Peracetic acid generation from hydroxyapatite bound CE-7 perhydrolase fusions (Example 8); type: biochemical; details: hydroxyapatite particles exposed to 10 μM enzyme, washed; 100 mM triacetin, 100 mM H2O2, 30 min, 37° C.; no enzyme 30-118.8
# Protocol: (§1) The detection of peracetic acid followed the method described in Pinkernell et. al. (Analyst, 1997, 122, 567) using colorimetric detection of 2,2′-azino-bis(3-ethylbenzothiazoline(-6-sulfonate (ABTS) oxidation by peracetic acid. Following the formation of peracetic acid with the addition of triacetin and hydrogen peroxide, 90 μL of solution was added to 10 μL of 0.1 M H3PO4 in a well plate. 50 μL of 1 M acetic acid, 50 μL of 0.5 g/L ABTS and 50 μL of 0.002 g/L of KI was added. The solution was allowed to develop for 5 min. The absorbance of the solution was measured at 405 nm using a microplate reader. The peracetic acid concentration was calculated based on a standard curve developed simultaneously using peracetic acid reagent solution.
# To assess binding of these constructs to hydroxyapatite, 33 mg of hydroxyapatite particles (Macro-prep Ceramic Hydroxyapatite TYPE I, 80 μm size BioRad, Hercules, Calif.), were washed with 10 mM phosphate buffer at pH 7.2. After removing the supernatant, enzyme stock solution was added to the hydroxyapatite dispersion to a final concentration of 10 μM and incubated for 30 min in a microcentrifuge tube with gentle agitation. Each sample was centrifuged for 1 min at 10000 rpm. The supernatant was removed and additional buffer was added. The particles were resuspended and transferred to a new tube. The process was repeated two additional times. The hydroxyapatite bound enzyme activity was measured by adding a 500 μl solution containing 100 mM triacetin, 100 mM H2O2 in 100 mM phosphate buffer, pH 7.2. The solution was incubated for 30 min, at 37° C. An aliquot was removed and mixed with H3PO4 and properly diluted for detection via ABTS oxidation as described in Example 7. The experiments were performed at different day with no enzyme as control for each experiment.
# [2] = Peracetic acid generated in solution by CE-7 perhydrolase fusions (Example 8); type: biochemical; details: 0.5 μM enzyme, 100 mM triacetin, 100 mM H2O2, pH 7.2, 10 min, 37° C.; no enzyme 378.9
# Protocol: as §1
# Perhydrolase enzymes listed in Table 6 were assessed for solution activities. The method to measure the perhydrolase in solution activity was described in Example 7 by making a 500 μL solution containing 0.5 μM of enzyme, 100 mM triacetin, 100 mM H2O2 in 100 mM phosphate buffer, pH 7.2. The solution was mixed and incubated for 10 min at 37° C. A 10 μL aliquot was removed and diluted for detection as described in Example 7. Peracetic acid concentration was determined using a standard curve generated with a stock solution of peracetic acid (Aldrich). The experiment was also performed with no enzyme present as a control.
# [3] = Peracetic acid from C277S CXH fusions exposed to hydroxyapatite discs (Example 9); details: no enzyme control subtracted
# [4] = Peracetic acid generated in solution by C277S CXH fusions (Example 9); details: 0.5 μM enzyme, sarkosyl buffer, 100 mM triacetin, 100 mM H2O2, pH 7.2, 10 min, 37° C.
Molecule,Peracetic acid (ppm) [1],PAA (ppm) [2],"Peracetic acid (ppm) Exposed to Hydroxyapatite, Disc ([3]; disc-bound enzyme, 100 mM triacetin, 100 mM H2O2, 30 min, 37° C.)","Peracetic acid (ppm) Exposed to Hydroxyapatite, Supernatant ([3]; unbound enzyme in supernatant after 10 μM enzyme on disc)",Peracetic acid (ppm) In Solution [4]
"EZ-28: Bpu-link1-HC263-H6, SEQ ID NO: 452 (protein) MQLFDLSLEELKKYKPKKTARPDFSDFWKKSLEELRQVEAEPTLESYDYPVKGVKVYRLTYQSFGHSKIEGFYAVPDQTGPHPALVRFHGYNASYDGGIHDIVNWALHGYATFGMLVRGQGGSEDTSVTPGGHALGWMTKGILSKDTYYYRGVYLDAVRALEVIQSFPEVDEHRIGVIGGSQGGALAIAAAALSDIPKVVVADYPYLSNFERAVDVALEQPYLEINSYFRRNSDPKVEEKAFETLSYFDLINLAGWVKQPTLMAIGLIDKITPPSTVFAAYNHLETDKDLKVYRYFGHEFIPAFQTEKLSFLQKHLLLSTGPGSGGAGSPGSAGGPGSPSAQSQLPDKHSGLHERAPQRYGPEPEPEPEPIPEPPKEAPVVIEKPKPKPKPKPKPPAHDHKNQKETHQRHAAGSGGGGSPHHHHHH",534.2 ppm,2512.7 ppm,,,
"EZ-27: Bpu-link1-H6, SEQ ID NO: 451 (protein) MQLFDLSLEELKKYKPKKTARPDFSDFWKKSLEELRQVEAEPTLESYDYPVKGVKVYRLTYQSFGHSKIEGFYAVPDQTGPHPALVRFHGYNASYDGGIHDIVNWALHGYATFGMLVRGQGGSEDTSVTPGGHALGWMTKGILSKDTYYYRGVYLDAVRALEVIQSFPEVDEHRIGVIGGSQGGALAIAAAALSDIPKVVVADYPYLSNFERAVDVALEQPYLEINSYFRRNSDPKVEEKAFETLSYFDLINLAGWVKQPTLMAIGLIDKITPPSTVFAAYNHLETDKDLKVYRYFGHEFIPAFQTEKLSFLQKHLLLSTGPGSGGAGSPGSAGGPGSHHHHHH",634.9 ppm,2332.9 ppm,,,
"EZ-19: C277S-EPEPE-link1-EPEPE-CXH201-H6, SEQ ID NO: 443 (protein) MAFFDLPLEELKKYRPERYEEKDFDEFWEETLAESEKFPLDPVFERMESHLKTVEAYDVTFSGYRGQRIKGWLLVPKLEEEKLPCVVQYIGYNGGRGFPHDWLFWPSMGYICFVMDTRGQGSGWLKGDTPDYPEGPVDPQYPGFMTRGILDPRTYYYRRVFTDAVRAVEAAASFPQVDQERIVIAGGSQGGGIALAVSALSKKAKALLCDVPFLCHFRRAVQLVDTHPYAEITNFLKTHRDKEEIVFRTLSYFDGVNFAARAKIPALFSVGLMDNISPPSTVFAAYNYYAGPKEIRIYPYNNHEGGGSFQAVEQVKFLKKLFEKGEPEPEGPGSGGAGSPGSAGGPGSEPEPEWKTKKILLSRTRRIMRQVVRSVMHKIWHHHHHH",,,3136 ppm,1665 ppm,4088 ppm
"EZ-35: Lla-link1-DenP308-H6, SEQ ID NO: 459 (protein) MTKINNWQDYQGSSLKPEDFDKFWDEKINLVSNHQFEFELIEKNLSSKVVNFYHLWFTAIDGAKIHAQLIVPKNLKEKYPAILQFHGYHCDSGDWVDKIGIVAEGNVVLALDCRGQGGLSQDNIQTMGMTMKGLIVRGIDEGYENLYYVRQFMDLITATKILSEFDFVDETNISAQGASQGGALAVACAALSPLIKKVTATYPFLSDYRKAYELGAEESAFEELPYWFQFKDPLHLREDWFFNQLEYIDIQNLAPRIKAEVIWILGGKDTVVPPITQMAAYNKIQSKKSLYVLPEYGHEYLPKISDWLRENQGPGSGGAGSPGSAGGPGSDPTKPPRTPTANTSRPHHNFGSGGGGSPHHHHH",260 ppm,998 ppm,,,

# Reference: patent publication US8663616B2, “Enzymatic peracid generation for use in oral care products” (E I du Pont de Nemours and Company, priority 2010, dated 2014)
